From publication PMC9394474 (Viruses, 2022)

B1: mouse glycogenin-1, full length (natural protein)
chain: MTDQAFVTLTTNDAYAKGALVLGSSLKQHRTTRRMVVLTSPQVSDSMRKVLETVFDDVIMVDVLDSGDSAHLTLMKRPELGITLTKLHCWSLTQYSKCVFMDADTLVLSNIDDLFEREELSAAPDPGWPDCFNSGVFVYQPSIETYNQLLHLASEQGSFDGGDQGLLNTYFSGWATTDITKHLPFVYNLSSISIYSYLPAFKAFGKNAKVVHFLGRTKPWNYTYNPQTKSVNCDSQDPTVSHPEFLNLWWDTFTTNVLPLLQHHGLVKDASSYLMMEHVSGALSDLSFGEAPAAPQPSMSSEERKERWEQGQADYMGADSFDNIKRKLDTYLQ
notes: also called mGYG1; mGYG
B2: rabbit glycogenin-1, full length (natural protein)
chain: MTDQAFVTLTTNDAYAKGALVLGSSLKQHRTSRRLAVLTTPQVSDTMRKALEIVFDEVITVDILDSGDSAHLTLMKRPELGVTLTKLHCWSLTQYSKCVFMDADTLVLANIDDLFEREELSAAPDPGWPDCFNSGVFVYQPSVETYNQLLHVASEQGSFDGGDQGLLNTFFNSWATTDIRKHLPFIYNLSSISIYSYLPAFKAFGANAKVVHFLGQTKPWNYTYDTKTKSVRSEGHDPTMTHPQFLNVWWDIFTTSVVPLLQQFGLVQDTCSYQHVEDVSGAVSHLSLGETPATTQPFVSSEERKERWEQGQADYMGADSFDNIKKKLDTYLQ
notes: vector pOPTH; also called rbGYG1; full-length rbGYG1
B3: hexahistidine-tagged full-length human GYG1, GN1 isoform (natural protein)
chain: MTDQAFVTLTTNDAYAKGALVLGSSLKQHRTTRRLVVLATPQVSDSMRKVLETVFDEVIMVDVLDSGDSAHLTLMKRPELGVTLTKLHCWSLTQYSKCVFMDADTLVLANIDDLFDREELSAAPDPGWPDCFNSGVFVYQPSVETYNQLLHLASEQGSFDGGDQGILNTFFSSWATTDIRKHLPFIYNLSSISIYSYLPAFKVFGASAKVVHFLGRVKPWNYTYDPKTKSVKSEAHDPNMTHPEFLILWWNIFTTNVLPLLQQFGLVKDTCSYVNVEDVSGAISHLSLGEIPAMAQPFVSSEERKERWEQGQADYMGADSFDNIKRKLDTYLQ
notes: also called hsGYG1-GN1; hGYG1-GN1

Key:
Assay in all cases: ITC
Settings in all cases: both partners purified
mouse TRIM7-PRYSPRY = molecular target: T1, mouse TRIM7-PRYSPRY (mouse, UniProt Q923T7 342-510)
T1 construct: vector pOPTH; also called mTRIM7; mTrim7-PRYPSRY

human hisTRIM7-PRYSPRY = molecular target: T2, human hisTRIM7-PRYSPRY (human, UniProt Q9C029 342-511)
T2 construct: vector pOPTH; also called hTRIM7-PRYSPRY; hTRIM7

hisMBP-TRIM7-CC-PRYSPRY = hisMBP-TRIM7-CC-PRYSPRY (human, UniProt Q9C029 165-511)

Binder | binding result (mouse TRIM7-PRYSPRY) | further results
B1 | binds | 
AAAAALQ |  | Kd (human hisTRIM7-PRYSPRY): 8 µM
B2 | binds | 
B3 |  | stoichiometry N (hisMBP-TRIM7-CC-PRYSPRY): 1
